Biological target: the molecule itself
Experiment: crystal structure; PIV5 HN ectodomain 56-565 at ~10 mg/mL with a 1.2 molar excess of sialyllactose; 1.6 M ammonium sulfate, 0.1 M MES pH 6.5, 10% 1,4-dioxane, room temperature; space group I4, 2.5 Å

B1: PIV5 HN ectodomain (56-565) (domain or fragment)
chain: SGLGSITDLLNNILSVANQIIYNSAVALPLQLDTLESTLLTAIKSLQTSDKLEQNCSWSAALINDNRYINGINQFYFSIAEGRNLTLGPLLNMPSFIPTATTPEGCTRIPSFSLTKTHWCYTHNVILNGCQDHVSSNQFVSMGIIEPTSAGFPFFRTLKTLYLSDGVNRKSCSISTVPGGCMMYCFVSTQPERDDYFSAAPPEQRIIIMYYNDTIVERIINPPGVLDVWATLNPGTGSGVYYLGWVLFPIYGGVIKGTSLWNNQANKYFIPQMVAALCSQNQATQVQNAKSSYYSSWFGNRMIQSGILACPLRQDLTNECLVLPFSNDQVLMGAEGRLYMYGDSVYYYQRSNSWWPMTMLYKVTITFTNGQPSAISAQNVPTQQVPRPGTGDCSATNRCPGFCLTGVYADAWLLTNPSSTSTFGSEATFTGSYLNTATQRINPTMYIANNTQIISSQQFGSSGQEAAYGHTTCFRDTGSVMVYCIYIIELSSSLLGQFQIVPFIRQVTLS
notes: Hemagglutinin-neuraminidase (HN) of parainfluenza virus 5, ectodomain residues 56-565 (stalk 56-101, linker 102-117, head from I118); also called parainfluenza virus 5 hemagglutinin-neuraminidase ectodomain
stoichiometry N: 4
